The record followed here is publication PMC8562477.

This data set deals with T1, MBP-RstA D52A D52A (Pseudomonas fluorescens 2P24), ORF:4a43b447.
T1 sequence: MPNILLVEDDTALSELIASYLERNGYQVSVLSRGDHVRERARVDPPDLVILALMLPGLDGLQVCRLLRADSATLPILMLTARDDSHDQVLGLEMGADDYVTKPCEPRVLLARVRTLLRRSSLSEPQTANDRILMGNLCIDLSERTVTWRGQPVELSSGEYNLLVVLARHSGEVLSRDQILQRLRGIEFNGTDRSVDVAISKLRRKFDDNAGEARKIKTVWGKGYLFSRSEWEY
As to the kind of experiment: EMSA. The conditions noted are these: EMSA: 50 mM Tris-HCl pH 7.5, 10 mM MgCl2, 10% glycerol, 0.5 mM EDTA, 50 mM KCl, 3 uM BSA, 50 ng DNA in 20 ul, 30 min room temperature, 6% native PAGE. For orientation: A gel shift assay detects complexes by their altered migration in electrophoresis.

Take “CGGCCTGTGTGATTACACAATTTCACAGAGCGCCTACAAAGCTTCACCCCTGTCATGGGCCTGGATCCCTACCATGAGCGGCTCAATATTGGGGAAGCACC (double strand) [FAM-mexC promoter]”: the binding entry is “binds more weakly”.
Consider “GGCAATAAACACCTCAATCAGGATGCGTCAGCAATGCGTAAGCATCAGCTGAACAAAATATGAGGCGACGTCTCTTGAAACGCGTCTCCGATCTATACAGGCCTTTGTCAGGCTTTTGTAAATCCGGATATTACGCAATTTGGCTGTTTACAAACAACCGTGTACGTAAGTATATTTCTTAGCATCCTACTAATTGAAAAAATGCTCCTTTTTTACCCTTCCACCTTTCGAGTGCGCCAGTTACGCGCCTGGACCCGAGGATTT (double strand) [FAM-emhA promoter]”, for which the binding result is “binds more weakly”.
